The values below are quoted from earlier work in paper PMC4216181 (Journal of nuclear medicine : official publication, Society …, 2009).

The target of the series is HER2 (Homo sapiens, UniProt P04626). Particulars: read-out: dissociation constant [KD]; HER2, nonmodified 2-helix protein; cited from earlier work.

“[homoC]NKEMRNRYWEAALDPNLNNQQK-RAKIRSIYDDP[homoC]-NH2 (disulfide) [MUT-DS]”: the dissociation constant Kd is 5 nM.
